The text below walks through data of patent US20210380703A1 (RIGEL PHARMACEUTICALS, published 2021).

One assay concerns the target T1, Human ACVR2A (human, UniProt P27037 20-135, limits assumed).
T1 construct: also called activin receptor, type II A
The assay can be described thus: ELISA. The method, boiled down:
(§1)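 ELISA measured binding of ACVR2A-specific monoclonal antibodies to human and mouse ACVR2A. Biotinylated goat anti-human kappa light chain served as positive control and human Fc as negative control.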
For orientation: An ELISA detects its analyte on a solid surface through an enzyme-linked reagent.

The target in a further assay is Mouse ACVR2A (mouse, UniProt P27038 20-135, limits assumed). The assay can be described thus: ELISA. The method, boiled down: as §1
In another assay the target is T2, Goat anti-Human Kappa.
T2 construct: Positive control of the ELISA; also called biotinylated goat anti-human kappa light chain
The assay can be described thus: ELISA, positive control. In outline: as §1
Further: test concentration or dose not given here.

T1 sequence (P27037 20-135 limits assumed): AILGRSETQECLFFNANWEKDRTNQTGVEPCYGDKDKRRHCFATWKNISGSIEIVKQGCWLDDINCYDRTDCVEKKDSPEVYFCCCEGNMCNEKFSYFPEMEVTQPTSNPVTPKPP
Sequence of Mouse ACVR2A (P27038 20-135 limits assumed): as the sequence (P27037 20-135 limits assumed) above, with K20R, V73I counted along it

B1: 369_D12 (antibody, V domains shown)
VH: EVQLLESGGGLVQPGGSLRLSCAASGFTFDSYSMNWVRQAPGKGLEWVAGINYNSGYTSYADSVKGRFTISRDNSKNTLYLQMNSLRAEDTAVYYCARSANWHDTALDYWGQGTLVTVSS
VL: DIQMTQSPSSLSASVGDRVTITCRASQSILSYLNWYQQKPGKAPKLLIYAATSLASGVPSRFSGSGSGTDFTLTISSLQPEDFATYYCQQSYDTPLTFGGGTKVEIK
Turning to B1, the figures for the optical density in the assay with Human ACVR2A, with Mouse ACVR2A and with Goat anti-Human Kappa were 3.04 OD, 3.1 OD and 3.53 OD, respectively.

B2: 369_F06 (antibody, V domains shown)
VH: EVQLLESGGGLVQPGGSLRLSCAASGFTFDDYSMNWVRQAPGKGLEWVAGINYNGGYKGYADSVKGRFTISRDNSKNTLYLQMNSLRAEDTAVYYCARSANWHDTALDYWGQGTLVTVSS
VL: DIQMTQSPSSLSASVGDRVTITCRASQSIVSYVNWYQQKPGKAPKLVIYAATSRASGVPSRFSGSGSGTDFTLTISSLQPEDFATYYCQQSYDSPLTFGGGTKVEIK
Regarding B2, the optical density with Human ACVR2A is 3.11 OD; with Mouse ACVR2A, 3.07 OD; with Goat anti-Human Kappa, 3.51 OD.

B3: 369_G01 (antibody, V domains shown)
VH: EVQLLESGGGLVQPGGSLRLSCAASGFTFSSYSMNWVRQAPGKGLEWVSNINYNSGYKSYADSVKGRFTISRDNSKNTLYLQMNSLRAEDTAVYYCARSANWHDTALDYWGQGTLVTVSS
VL: DIQMTQSPSSLSASVGDRVTITCRASQSILSYVNWYQQKPGKAPKLLIYAATSRASGVPSRFSGSGSGTDFTLTISSLQPEDFATYYCQQSYSSPLTFGGGTKVEIK
For the molecule B3, the optical density worked out at 3.57 OD with Human ACVR2A, 3.67 OD in the assay with Mouse ACVR2A and 3.44 OD with Goat anti-Human Kappa.

B4: 369_F10 (antibody, V domains shown)
VH: EVQLLESGGGLVQPGGSLRLSCAASGFTFDSYGMNWVRQAPGKGLEWVSNINYNSGYKSYADSVKGRFTISRDNSKNTLYLQMNSLRAEDTAVYYCARSANWHDTALDYWGQGTLVTVSS
VL: DIQMTQSPSSLSASVGDRVTITCRASQSIVTYLNWYQQKPGKAPKLLIYAVTSRASGVPSRFSGSGSGTDFTLTISSLQPEDFATYYCQQSYDLPLTFGGGTKVEIK
On to B4, for which the optical density was determined as 3.05 OD in the assay with Human ACVR2A, 3.23 OD in the assay with Mouse ACVR2A and 3.67 OD with Goat anti-Human Kappa.

B5: 369_G06 (antibody, V domains shown)
VH: EVQLLESGGGLVQPGGSLRLSCAASGFTFDSYGMNWVRQAPGKGLEWVAGINYNGGYTSYADSVKGRFTISRDNSKNTLYLQMNSLRAEDTAVYYCARSANWHDTALDYWGQGTLVTVSS
VL: DIQMTQSPSSLSASVGDRVTITCRASQSILSYVNWYQQKPGKAPKLVIYAATSRASGVPSRFSGSGSGTDFTLTISSLQPEDFATYYCQQSYENPLTFGGGTKVEIK
In the case of B5, the optical density is 2.98 OD with Human ACVR2A, 2.91 OD with Mouse ACVR2A and 3.38 OD with Goat anti-Human Kappa.

B6: 369_G12 (antibody, V domains shown)
VH: EVQLLESGGGLVQPGGSLRLSCAASGFTFSSYSMNWVRQAPGKGLEWVANINYNGGYTGYADSVKGRFTISRDNSKNTLYLQMNSLRAEDTAVYYCARSANWHDTALDYWGQGTLVTVSS
VL: DIQMTQSPSSLSASVGDRVTITCRASQSILTYVNWYQQKPGKAPKLVIYAATSRHSGVPSRFSGSGSGTDFTLTISSLQPEDFATYYCQQSDNTPLTFGGGTKVEIK
For the molecule B6, the optical density with Human ACVR2A was determined as 1.77 OD; with Mouse ACVR2A, 1.88 OD; with Goat anti-Human Kappa, 2.65 OD.

B7: 369_E11 (antibody, V domains shown)
VH: EVQLLESGGGLVQPGGSLRLSCAASGFTFSSYGMNWVRQAPGKGLEWVSNINYNGGYTSYADSVKGRFTISRDNSKNTLYLQMNSLRAEDTAVYYCARSANWHDTALDYWGQGTLVTVSS
VL: DIQMTQSPSSLSASVGDRVTITCRASQSIISYLNWYQQKPGKAPKLLIYAATSLASGVPSRFSGSGSGTDFTLTISSLQPEDFATYYCQQSYDTPLTFGGGTKVEIK
Regarding B7, the optical density in the assay with Human ACVR2A came out at 2.89 OD; in the assay with Mouse ACVR2A, 3.2 OD; with Goat anti-Human Kappa, 3.69 OD.

B8: 369_E12 (antibody, V domains shown)
VH: EVQLLESGGGLVQPGGSLRLSCAASGFTFSSYGMHWVRQAPGKGLEWVASINYNSGYTSYADSVKGRFTISRDNSKNTLYLQMNSLRAEDTAVYYCARSANWHDTALDYWGQGTLVTVSS
VL: DIQMTQSPSSLSASVGDRVTITCRASQSIISYLNWYQQKPGKAPKLLIYAATSRASGVPSRFSGSGSGTDFTLTISSLQPEDFATYYCQQSYESPLTFGGGTKVEIK
In the case of B8, the results for the optical density with Human ACVR2A, with Mouse ACVR2A and in the assay with Goat anti-Human Kappa were 2.46 OD, 2.69 OD and 3.67 OD, respectively.

B9: 369_G04 (antibody, V domains shown)
VH: EVQLLESGGGLVQPGGSLRLSCAASGFTFDSYSMNWVRQAPGKGLEWVSGINYNGGYTSYADSVKGRFTISRDNSKNTLYLQMNSLRAEDTAVYYCARSANWHDTALDYWGQGTLVTVSS
VL: DIQMTQSPSSLSASVGDRVTITCRASQSILTYVNWYQQKPGKAPKLLIYATTSRHSGVPSRFSGSGSGTDFTLTISSLQPEDFATYYCQQSYETPLTFGGGTKVEIK
In the case of B9, the optical density with Human ACVR2A is 2.37 OD; in the assay with Mouse ACVR2A it was 2.69 OD; with Goat anti-Human Kappa, 3.32 OD.

B10: 369_F11 (antibody, V domains shown)
VH: EVQLLESGGGLVQPGGSLRLSCAASGFTFDSYGMNWVRQAPGKGLEWVSNINYNSGYKSYADSVKGRFTISRDNSKNTLYLQMNSLRAEDTAVYYCARSANWHDTALDYWGQGTLVTVSS
VL: DIQMTQSPSSLSASVGDRVTITCRASQSIISYLNWYQQKPGKAPKLLIYAATSRASGVPSRFSGSGSGTDFTLTISSLQPEDFATYYCQQSYDLPLTFGGGTKVEIK
On to B10, for which the results for the optical density with Human ACVR2A, with Mouse ACVR2A and with Goat anti-Human Kappa were 3.2 OD, 3.37 OD and 3.66 OD, respectively.

B11: 369_G11 (antibody, V domains shown)
VH: EVQLLESGGGLVQPGGSLRLSCAASGFTFSSYSMNWVRQAPGKGLEWVANINYNSGYKGYADSVKGRFTISRDNSKNTLYLQMNSLRAEDTAVYYCARSANWHDTALDYWGQGTLVTVSS
VL: DIQMTQSPSSLSASVGDRVTITCRASQSILTYLNWYQQKPGKAPKLLIYAATSLASGVPSRFSGSGSGTDFTLTISSLQPEDFATYYCQQSYESPLTFGGGTKVEIK
For B11, the optical density was determined as 3.03 OD in the assay with Human ACVR2A, 3.06 OD in the assay with Mouse ACVR2A and 2.59 OD with Goat anti-Human Kappa.

B12: 369_F03 (antibody, V domains shown)
VH: EVQLLESGGGLVQPGGSLRLSCAASGFTFSDYGMNWVRQAPGKGLEWVSGINYNSGYTSYADSVKGRFTISRDNSKNTLYLQMNSLRAEDTAVYYCARSANWHDTALDYWGQGTLVTVSS
VL: DIQMTQSPSSLSASVGDRVTITCRASQSIVSYVNWYQQKPGKAPKLLIYAATSLASGVPSRFSGSGSGTDFTLTISSLQPEDFATYYCQQSYDSPLTFGGGTKVEIK
For the molecule B12, the figures for the optical density in the assay with Human ACVR2A, in the assay with Mouse ACVR2A and in the assay with Goat anti-Human Kappa were 2.58 OD, 2.75 OD and 3.44 OD, respectively.

B13: 369_F01 (antibody, V domains shown)
VH: EVQLLESGGGLVQPGGSLRLSCAASGFTFSSYGMNWVRQAPGKGLEWVSGINYNGGYKSYADSVKGRFTISRDNSKNTLYLQMNSLRAEDTAVYYCARSANWHDTALDYWGQGTLVTVSS
VL: DIQMTQSPSSLSASVGDRVTITCRASQSILTYVNWYQQKPGKAPKLLIYAATSRASGVPSRFSGSGSGTDFTLTISSLQPEDFATYYCQQSYELPLTFGGGTKVEIK
For the molecule B13, the optical density in the assay with Human ACVR2A came to 3.28 OD; with Mouse ACVR2A it was 3.42 OD; with Goat anti-Human Kappa it was 3.47 OD.

B14: 369_F02 (antibody, V domains shown)
VH: EVQLLESGGGLVQPGGSLRLSCAASGFTFSSYGMNWVRQAPGKGLEWVASINYNSGYKSYADSVKGRFTISRDNSKNTLYLQMNSLRAEDTAVYYCARSANWHDTALDYWGQGTLVTVSS
VL: DIQMTQSPSSLSASVGDRVTITCRASQSIVSYLNWYQQKPGKAPKLVIYAATSRASGVPSRFSGSGSGTDFTLTISSLQPEDFATYYCQQSYDTPLTFGGGTKVEIK
For B14, the optical density was determined as 3.07 OD in the assay with Human ACVR2A, 3.35 OD with Mouse ACVR2A and 3.56 OD with Goat anti-Human Kappa.

B15: 369_H06 (antibody, V domains shown)
VH: EVQLLESGGGLVQPGGSLRLSCAASGFTFSSYGMNWVRQAPGKGLEWVANINYNGGYKSYADSVKGRFTISRDNSKNTLYLQMNSLRAEDTAVYYCARSANWHDTALDYWGQGTLVTVSS
VL: DIQMTQSPSSLSASVGDRVTITCRASQSIVSYVNWYQQKPGKAPKLLIYAATSRASGVPSRFSGSGSGTDFTLTISSLQPEDFATYYCQQSYDTPLTFGGGTKVEIK
On to B15, for which the figures for the optical density in the assay with Human ACVR2A, with Mouse ACVR2A and with Goat anti-Human Kappa were 3.23 OD, 3.56 OD and 3.5 OD, respectively.

B16: 369_H05 (antibody, V domains shown)
VH: EVQLLESGGGLVQPGGSLRLSCAASGFTFSSYGMNWVRQAPGKGLEWVANINYNGGYTGYADSVKGRFTISRDNSKNTLYLQMNSLRAEDTAVYYCARSANWHDTALDYWGQGTLVTVSS
VL: DIQMTQSPSSLSASVGDRVTITCRASQSIVSYVNWYQQKPGKAPKLLIYAATSRASGVPSRFSGSGSGTDFTLTISSLQPEDFATYYCQQSYSNPLTFGGGTKVEIK
For B16, the optical density is 3.25 OD with Human ACVR2A, 3.34 OD with Mouse ACVR2A and 3.54 OD in the assay with Goat anti-Human Kappa.

B17: 369_E02 (antibody, V domains shown)
VH: EVQLLESGGGLVQPGGSLRLSCAASGFTFDSYGMNWVRQAPGKGLEWVSNINYNGGYTGYADSVKGRFTISRDNSKNTLYLQMNSLRAEDTAVYYCARSANWHDTALDYWGQGTLVTVSS
VL: DIQMTQSPSSLSASVGDRVTITCRASQSIVSYVNWYQQKPGKAPKLLIYATTSRHSGVPSRFSGSGSGTDFTLTISSLQPEDFATYYCQQSYDNPLTFGGGTKVEIK
Turning to B17, the optical density with Human ACVR2A was 2.14 OD; with Mouse ACVR2A, 2.34 OD; with Goat anti-Human Kappa, 3.43 OD.
